The source of these data is patent publication EP4786494A1 (Nanjing Leads Biolabs Co., Ltd., dated 2026).

The target in assay [1] is T1, human FGFR2-his protein (huFGFR2-his) (human).
T1 construct: Extracellular region of human FGFR2 (NP_001138385.1) with a 6xHis tag; also called human FGFR2 extracellular protein
T1 chain: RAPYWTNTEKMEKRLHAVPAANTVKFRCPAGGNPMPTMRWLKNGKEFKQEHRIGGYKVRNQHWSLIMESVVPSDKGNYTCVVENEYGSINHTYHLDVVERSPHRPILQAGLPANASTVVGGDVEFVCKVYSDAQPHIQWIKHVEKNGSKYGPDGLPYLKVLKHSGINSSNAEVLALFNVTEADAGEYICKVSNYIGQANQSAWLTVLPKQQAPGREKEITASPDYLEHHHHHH
As to the kind of experiment: BLI (ForteBio Octet RED96e), antibody on AHC sensor, FGFR2-his in solution, 1:1 model.

The target of assay [2] is T2, cynomolgus FGFR2-his protein (cynoFGFR2-his) (cynomolgus).
T2 construct: Extracellular region of cynomolgus FGFR2b (XP_028682763.1) with a 6xHis tag; also called cynomolgus FGFR2 extracellular protein
T2 chain: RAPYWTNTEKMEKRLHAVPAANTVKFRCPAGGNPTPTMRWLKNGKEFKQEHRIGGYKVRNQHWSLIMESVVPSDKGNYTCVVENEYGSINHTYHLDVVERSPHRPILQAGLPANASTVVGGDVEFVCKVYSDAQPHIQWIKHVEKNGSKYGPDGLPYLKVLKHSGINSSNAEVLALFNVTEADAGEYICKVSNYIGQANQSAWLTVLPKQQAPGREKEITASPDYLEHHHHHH
As to the kind of experiment: BLI (ForteBio Octet RED96e), antibody on AHC sensor, cynomolgus FGFR2-his in solution, 1:1 model. (BLI is a label-free optical method that tracks binding on a fibre tip over time.)

B1: humanized monoclonal antibody huG11B8-5 (antibody, human IgG1, kappa, V domains shown)
VH: EVQLVQSGAEVKKPGATVKISCKASGYTFTDYNMDWVQQAPGKGLEWMGDINPKNGETFYAEKFQGRVTLTVDRSTNTAYMELSSLRSEDTAVYFCAKRDLNWYFDYWGQGTTVTVSS
VL: DIQMTQSPSSLSASVGDRVTITCQASDHINNWLAWYQQKPGKAPKLLISGATSLETGVPSRFSGSGSGKDYTFTISSLQPEDIATYYCQQYWSTPWTFGGGTKVEIKR
notes: huG11B8H-3 + huG11B8L-1; human IgG1 / kappa
With B1, in assay [1], the Kd (commonly the concentration at which binding is half-saturated) came out at 2.62 nM; the dissociation rate constant (koff) – broadly, a measure of how fast the partners let go of each other – is 0.000431 s⁻¹; the kon (as a rule, the rate constant with which the complex forms) amounted to 164000 M⁻¹ s⁻¹. Besides, in assay [2], the Kd came out at 1.62 nM, the koff stood at 0.000866 s⁻¹ and the kon is 536000 M⁻¹ s⁻¹.
